Data from US20150337051A1 (MORPHOTEK, published 2015).

Experiments:
[1] = molecular target: T1, recombinant CHO TEM-1 Fc fusion protein (UniProt Q9HCU0); assay: ECL sandwich, competition: biotin-9G5 capture, sulfo-TAG-15F8 detection; MORAb-004 spike 0.78125 µg/mL, TEM-1-Fc QC 0.4 ng/mL; recovery at 0 µg/mL MORAb-004: 109
T1 sequence (looked up): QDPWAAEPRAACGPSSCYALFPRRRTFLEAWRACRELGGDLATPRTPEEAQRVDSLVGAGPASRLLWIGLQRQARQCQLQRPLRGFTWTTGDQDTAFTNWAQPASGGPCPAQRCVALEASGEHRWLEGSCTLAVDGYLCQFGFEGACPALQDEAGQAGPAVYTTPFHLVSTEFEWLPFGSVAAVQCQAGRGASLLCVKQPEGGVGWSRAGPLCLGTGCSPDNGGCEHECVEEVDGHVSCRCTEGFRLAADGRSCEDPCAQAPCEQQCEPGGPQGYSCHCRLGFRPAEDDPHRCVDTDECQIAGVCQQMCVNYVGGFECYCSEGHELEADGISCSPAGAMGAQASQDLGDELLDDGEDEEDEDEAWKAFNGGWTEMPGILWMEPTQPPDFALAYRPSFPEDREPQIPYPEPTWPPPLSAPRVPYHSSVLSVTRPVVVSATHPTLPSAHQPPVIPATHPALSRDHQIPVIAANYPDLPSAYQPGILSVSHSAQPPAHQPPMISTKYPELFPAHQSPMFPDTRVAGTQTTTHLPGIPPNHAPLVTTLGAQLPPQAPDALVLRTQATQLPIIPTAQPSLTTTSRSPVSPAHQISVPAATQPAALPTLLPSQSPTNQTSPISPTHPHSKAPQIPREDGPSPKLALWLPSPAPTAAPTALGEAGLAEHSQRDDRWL

[2] = molecular target: T1, recombinant CHO TEM-1 Fc fusion protein; assay: ECL sandwich, competition: biotin-9G5 capture, sulfo-TAG-15F8 detection; MORAb-004 spike 6.25 µg/mL, TEM-1-Fc QC 0.08 ng/mL; recovery at 0 µg/mL MORAb-004: 114
[3] = molecular target: T1, recombinant CHO TEM-1 Fc fusion protein; assay: ECL sandwich, competition: biotin-9G5 capture, sulfo-TAG-15F8 detection; MORAb-004 spike 3.125 µg/mL, TEM-1-Fc QC 10 ng/mL; recovery at 0 µg/mL MORAb-004: 105
[4] = molecular target: T1, recombinant CHO TEM-1 Fc fusion protein; assay: ECL sandwich, competition: biotin-9G5 capture, sulfo-TAG-15F8 detection; MORAb-004 spike 3.125 µg/mL, TEM-1-Fc QC 2 ng/mL; recovery at 0 µg/mL MORAb-004: 106
[5] = molecular target: T1, recombinant CHO TEM-1 Fc fusion protein; assay: ECL sandwich, competition: biotin-9G5 capture, sulfo-TAG-15F8 detection; MORAb-004 spike 25 µg/mL, TEM-1-Fc QC 0.08 ng/mL; recovery at 0 µg/mL MORAb-004: 114
[6] = molecular target: T1, recombinant CHO TEM-1 Fc fusion protein; assay: ECL sandwich, competition: biotin-9G5 capture, sulfo-TAG-15F8 detection; MORAb-004 spike 0.78125 µg/mL, TEM-1-Fc QC 0.08 ng/mL; recovery at 0 µg/mL MORAb-004: 114
[7] = molecular target: T1, recombinant CHO TEM-1 Fc fusion protein; assay: ECL sandwich, competition: biotin-9G5 capture, sulfo-TAG-15F8 detection; MORAb-004 spike 50 µg/mL, TEM-1-Fc QC 10 ng/mL; recovery at 0 µg/mL MORAb-004: 105
[8] = molecular target: T1, recombinant CHO TEM-1 Fc fusion protein; assay: ECL sandwich, competition: biotin-9G5 capture, sulfo-TAG-15F8 detection; MORAb-004 spike 25 µg/mL, TEM-1-Fc QC 0.4 ng/mL; recovery at 0 µg/mL MORAb-004: 109
[9] = molecular target: T1, recombinant CHO TEM-1 Fc fusion protein; assay: ECL sandwich, competition: biotin-9G5 capture, sulfo-TAG-15F8 detection; MORAb-004 spike 25 µg/mL, TEM-1-Fc QC 50 ng/mL; recovery at 0 µg/mL MORAb-004: 104
[10] = molecular target: T1, recombinant CHO TEM-1 Fc fusion protein; assay: ECL sandwich, competition: biotin-9G5 capture, sulfo-TAG-15F8 detection; MORAb-004 spike 12.5 µg/mL, TEM-1-Fc QC 10 ng/mL; recovery at 0 µg/mL MORAb-004: 105
[11] = molecular target: T1, recombinant CHO TEM-1 Fc fusion protein; assay: ECL sandwich, competition: biotin-9G5 capture, sulfo-TAG-15F8 detection; MORAb-004 spike 1.5625 µg/mL, TEM-1-Fc QC 10 ng/mL; recovery at 0 µg/mL MORAb-004: 105
[12] = molecular target: T1, recombinant CHO TEM-1 Fc fusion protein; assay: ECL sandwich, competition: biotin-9G5 capture, sulfo-TAG-15F8 detection; MORAb-004 spike 1.5625 µg/mL, TEM-1-Fc QC 0.4 ng/mL; recovery at 0 µg/mL MORAb-004: 109
[13] = molecular target: T1, recombinant CHO TEM-1 Fc fusion protein; assay: ECL sandwich, competition: biotin-9G5 capture, sulfo-TAG-15F8 detection; MORAb-004 spike 6.25 µg/mL, TEM-1-Fc QC 10 ng/mL; recovery at 0 µg/mL MORAb-004: 105
[14] = molecular target: T1, recombinant CHO TEM-1 Fc fusion protein; assay: ECL sandwich, competition: biotin-9G5 capture, sulfo-TAG-15F8 detection; MORAb-004 spike 0.78125 µg/mL, TEM-1-Fc QC 50 ng/mL; recovery at 0 µg/mL MORAb-004: 104
[15] = molecular target: T1, recombinant CHO TEM-1 Fc fusion protein; assay: ECL sandwich, competition: biotin-9G5 capture, sulfo-TAG-15F8 detection; MORAb-004 spike 50 µg/mL, TEM-1-Fc QC 0.4 ng/mL; recovery at 0 µg/mL MORAb-004: 109

B1: MORAb-004 (antibody, INN chains, looked up, V domains shown)
VH: QVQLQESGPGLVRPSQTLSLTCTASGYTFTDYVIHWVKQPPGRGLEWIGYINPYDDDTTYNQKFKGRVTMLVDTSSNTAYLRLSSVTAEDTAVYYCARRGNSYDGYFDYSMDYWGSGTPVTVSS
VL: DIQMTQSPSSLSASVGDRVTITCRASQNVGTAVAWLQQTPGKAPKLLIYSASNRYTGVPSRFSGSGSGTDYTFTISSLQPEDIATYYCQQYTNYPMYTFGQGTKVQIK
What does the source list for B1?
% Recovery of TEM-1 QCs spiked with MORAb-004 [1]: 105%; % Recovery of TEM-1 QCs spiked with MORAb-004 [2]: 101%; % Recovery of TEM-1 QCs spiked with MORAb-004 [3]: 95.8%; % Recovery of TEM-1 QCs spiked with MORAb-004 [4]: 96%; % Recovery of TEM-1 QCs spiked with MORAb-004 [5]: 96%; % Recovery of TEM-1 QCs spiked with MORAb-004 [6]: 107%; % Recovery of TEM-1 QCs spiked with MORAb-004 [7]: 87%; % Recovery of TEM-1 QCs spiked with MORAb-004 [8]: 96.5%; % Recovery of TEM-1 QCs spiked with MORAb-004 [9]: 92.8%; % Recovery of TEM-1 QCs spiked with MORAb-004 [10]: 91.2%; % Recovery of TEM-1 QCs spiked with MORAb-004 [11]: 97.7%; % Recovery of TEM-1 QCs spiked with MORAb-004 [12]: 102%; % Recovery of TEM-1 QCs spiked with MORAb-004 [13]: 94.4%; % Recovery of TEM-1 QCs spiked with MORAb-004 [14]: 99.3%; % Recovery of TEM-1 QCs spiked with MORAb-004 [15]: 91.9%
